Assays:
Slac2-a/melanophilin = Slac2-a/melanophilin (UniProt Q91V27); details: cited from earlier work
Slp2-a = Slp2-a (UniProt Q99N50); details: cited from earlier work
[1] = target: bMERB domain (Rab binding domain) of Mical-cL, residues 534-683 (human) (UniProt O94851); assay: ITC; iTC200, 25°C; 400 µM Rab titrated into 20–40 µM bMERB domain in the cell; 20 mM Hepes pH 7.5, 50 mM NaCl, 2 mM MgCl2, 1 mM TCEP
Chain of bMERB domain (Rab binding domain) of Mical-cL, residues 534-683 (human) (O94851 1796-1945): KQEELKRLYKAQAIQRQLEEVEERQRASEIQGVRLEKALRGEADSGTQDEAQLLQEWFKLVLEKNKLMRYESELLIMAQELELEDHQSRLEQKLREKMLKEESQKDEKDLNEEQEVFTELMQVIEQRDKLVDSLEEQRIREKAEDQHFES

Chain of Rab27 (Q9ERI2 2-221): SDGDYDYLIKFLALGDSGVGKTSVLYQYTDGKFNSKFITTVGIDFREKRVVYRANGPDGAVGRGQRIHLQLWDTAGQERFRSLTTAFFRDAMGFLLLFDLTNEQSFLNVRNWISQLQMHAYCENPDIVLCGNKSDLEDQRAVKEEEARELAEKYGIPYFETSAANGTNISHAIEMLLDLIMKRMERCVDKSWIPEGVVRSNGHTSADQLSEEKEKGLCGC
Chain of Slac2-a/melanophilin (Q91V27 whole entry): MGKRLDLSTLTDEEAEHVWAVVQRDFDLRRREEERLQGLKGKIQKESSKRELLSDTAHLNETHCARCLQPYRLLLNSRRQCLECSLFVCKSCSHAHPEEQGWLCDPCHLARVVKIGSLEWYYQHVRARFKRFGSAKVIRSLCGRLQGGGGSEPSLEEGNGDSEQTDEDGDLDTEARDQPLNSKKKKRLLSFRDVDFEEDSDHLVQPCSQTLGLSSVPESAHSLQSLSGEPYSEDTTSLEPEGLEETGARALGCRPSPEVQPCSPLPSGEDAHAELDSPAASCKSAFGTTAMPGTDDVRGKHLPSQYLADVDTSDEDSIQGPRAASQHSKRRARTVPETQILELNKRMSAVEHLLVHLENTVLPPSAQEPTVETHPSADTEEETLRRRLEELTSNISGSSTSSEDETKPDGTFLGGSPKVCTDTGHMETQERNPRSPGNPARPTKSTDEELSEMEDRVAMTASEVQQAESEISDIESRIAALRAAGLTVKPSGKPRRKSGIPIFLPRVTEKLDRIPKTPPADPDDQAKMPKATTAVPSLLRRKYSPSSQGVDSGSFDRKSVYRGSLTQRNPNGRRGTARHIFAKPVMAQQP
Chain of Slp2-a (Q99N50 whole entry, the tested form may be a part): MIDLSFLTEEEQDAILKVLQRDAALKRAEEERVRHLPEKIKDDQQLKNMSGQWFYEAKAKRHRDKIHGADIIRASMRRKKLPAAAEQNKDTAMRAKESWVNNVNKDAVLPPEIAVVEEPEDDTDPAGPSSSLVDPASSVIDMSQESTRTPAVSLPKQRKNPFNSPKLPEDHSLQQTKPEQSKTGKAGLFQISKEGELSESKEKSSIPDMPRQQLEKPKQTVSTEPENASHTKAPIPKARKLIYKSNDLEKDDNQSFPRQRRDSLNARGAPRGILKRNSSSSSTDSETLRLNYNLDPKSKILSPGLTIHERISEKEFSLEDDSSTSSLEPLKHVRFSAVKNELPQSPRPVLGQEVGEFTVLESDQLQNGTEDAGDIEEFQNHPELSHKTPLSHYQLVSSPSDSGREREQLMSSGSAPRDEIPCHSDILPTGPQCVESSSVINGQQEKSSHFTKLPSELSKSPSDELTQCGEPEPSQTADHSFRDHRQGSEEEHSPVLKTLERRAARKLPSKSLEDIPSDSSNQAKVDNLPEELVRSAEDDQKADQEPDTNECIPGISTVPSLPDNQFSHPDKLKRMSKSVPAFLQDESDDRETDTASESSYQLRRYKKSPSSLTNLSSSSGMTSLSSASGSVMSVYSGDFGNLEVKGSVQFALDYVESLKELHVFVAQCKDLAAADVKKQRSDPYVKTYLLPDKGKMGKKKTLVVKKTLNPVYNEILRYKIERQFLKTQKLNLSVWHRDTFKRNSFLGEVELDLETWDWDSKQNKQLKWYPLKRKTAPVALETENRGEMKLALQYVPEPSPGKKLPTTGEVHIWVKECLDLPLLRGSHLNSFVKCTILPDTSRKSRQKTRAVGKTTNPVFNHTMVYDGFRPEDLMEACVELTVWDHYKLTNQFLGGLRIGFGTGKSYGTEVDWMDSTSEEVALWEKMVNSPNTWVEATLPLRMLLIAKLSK

Row | Substance | Kd (Slac2-a/melanophilin) [nM] | Kd (Slp2-a) [nM] | Kd [1] [nM]
1 | Rab27 (from UniProt Q9ERI2) | 112 | 13.4 | 
2 | Rab1R8N, chimera of Rab1b with the 4 N-terminal residues of Rab8 (from UniProt Q9H0U4 5-201) (natural protein) |  |  | 1100
